Consider 94 variants from the supplement of paper PMC10567573.

Sequences and labels used below:
B1: FCHSD1 (parent)
chain: LEAAEVILEHAHRGEQTTSQVSWE
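Note: lentivirally expressed fusions sorted by FACS into six bins by GFP to DsRed ratio, PSI derived from sequencing read proportions per bin multiplied by bin number.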

The variants in the series derive from B1. The series can be described thus: protein stability index of a GFP-peptide fusion (GPS, HEK-293T) (PSI 1-6); higher = more stable. The conditions noted are these: c terminus: a fixed tail appended.
Take LEAAEVILEHAHRGEHTTSQVSWE [Q16H]: the protein stability index was 4.05.

In the case of LEAAEVILEHAHRGETTTSQVSWE [Q16T], the protein stability index amounted to 4.33.

In the case of LEAAEVILEHAHRGEPTTSQVSWE [Q16P], the protein stability index is 4.05.

LEAAEVILEHAHRGECTTSQVSWE [Q16C]: the protein stability index was 2.73.

Take LEAAEVILEHAHRGEITTSQVSWE [Q16I]: the protein stability index turned out to be 3.98.

On to LHAAEVILEHAHRGEQTTSQVSWE [E2H], for which the protein stability index amounted to 4.72.

LRAAEVILEHAHRGEQTTSQVSWE [E2R]: the protein stability index stood at 3.84.

As to LCAAEVILEHAHRGEQTTSQVSWE [E2C], the protein stability index is 1.85.

As for LFAAEVILEHAHRGEQTTSQVSWE [E2F], the protein stability index was 2.21.

LSAAEVILEHAHRGEQTTSQVSWE [E2S]: the protein stability index is 3.7.

For the variant LTAAEVILEHAHRGEQTTSQVSWE [E2T], the protein stability index was 3.6.

With LEAAEVILEHAHRGEQTTAQVSWE [S19A], the protein stability index is 2.6.

On to LEAAEVILEHAHRGEQTTRQVSWE [S19R], for which the protein stability index is 4.42.

As to LEAAEVILEHAHRGEQTTKQVSWE [S19K], the protein stability index came to 4.45.

With LEAAEVILEHAHRGEQTTLQVSWE [S19L], the protein stability index worked out at 2.8.

Regarding LEAAEVILEHAHRGEQTTFQVSWE [S19F], the protein stability index came out at 2.97.

Regarding LEAAEVILEHAHRGEQTTIQVSWE [S19I], the protein stability index was determined as 3.02.

As to LEAAEVILEHAHRGEQTTQQVSWE [S19Q], the protein stability index is 4.89.

Regarding LEAAEVILEHAHRGEQTTDQVSWE [S19D], the protein stability index was 5.11.

For LEAAEVILEHAHRGEQTTCQVSWE [S19C], the protein stability index came to 3.3.

In the case of LEAAEVILEHAHRGEQTTVQVSWE [S19V], the protein stability index came out at 2.37.

On to LEAAEVILEHAHRGEQTTEQVSWE [S19E], for which the protein stability index worked out at 4.75.

With LEAAEVILEHAHRGEQTTNQVSWE [S19N], the protein stability index came to 4.7.

Take LEAAEVILEHAHRQEQTTSQVSWE [G14Q]: the protein stability index was found to be 4.63.

On to LEAAEVILEHAHRMEQTTSQVSWE [G14M], for which the protein stability index turned out to be 3.45.

Regarding LEAAEVILEHAHRNEQTTSQVSWE [G14N], the protein stability index stood at 4.53.

Regarding LEAAEVILEHAHRFEQTTSQVSWE [G14F], the protein stability index stood at 2.88.

For LEAAEVILEHAHRPEQTTSQVSWE [G14P], the protein stability index turned out to be 4.29.

As to LEAAEVILEHAHREEQTTSQVSWE [G14E], the protein stability index stood at 4.53.

For the variant LEAAEVILEHAHRSEQTTSQVSWE [G14S], the protein stability index is 4.46.

As for LEAAEVILEHAFRGEQTTSQVSWE [H12F], the protein stability index turned out to be 2.87.

Consider LEAAEVILEHAKRGEQTTSQVSWE [H12K], for which the protein stability index worked out at 4.07.

Take LEAAEVILEHAPRGEQTTSQVSWE [H12P]: the protein stability index came out at 4.43.

Take LEAAEVILEHAIRGEQTTSQVSWE [H12I]: the protein stability index is 4.25.

As to LEAAEVILEHADRGEQTTSQVSWE [H12D], the protein stability index is 4.04.

Regarding LEAAEVILEHAMRGEQTTSQVSWE [H12M], the protein stability index came to 3.79.

In the case of LEAAEVILEHAARGEQTTSQVSWE [H12A], the protein stability index was 4.23.

Take LEAAEVILEHAHIGEQTTSQVSWE [R13I]: the protein stability index was determined as 4.11.

Regarding LEAAEVILEHAHVGEQTTSQVSWE [R13V], the protein stability index was determined as 4.93.

In the case of LEAAEVILEHAHYGEQTTSQVSWE [R13Y], the protein stability index came out at 3.44.

Take LEAAEVILEHAHHGEQTTSQVSWE [R13H]: the protein stability index is 4.6.

Consider LEAAEVILEHAHQGEQTTSQVSWE [R13Q], for which the protein stability index stood at 4.41.

Take LEAAEVILEHAHAGEQTTSQVSWE [R13A]: the protein stability index worked out at 4.58.

As to LEAAEVILEHAHGGEQTTSQVSWE [R13G], the protein stability index is 5.25.

Regarding LEAAEVILEHAHRGHQTTSQVSWE [E15H], the protein stability index came out at 3.87.

In the case of LEAAEVILEHAHRGFQTTSQVSWE [E15F], the protein stability index stood at 2.31.

For the variant LEAAEVILEHAHRGIQTTSQVSWE [E15I], the protein stability index was found to be 3.31.

LEAAEVILEHAHRGAQTTSQVSWE [E15A]: the protein stability index was 3.79.

Consider LEAAEVILEHAHRGDQTTSQVSWE [E15D], for which the protein stability index amounted to 4.22.

In the case of LEAAEVILEHAHRGEQTTSQVSWG [E24G], the protein stability index is 2.57.

As for LEAAEVILEHAHRGEQTTSQVSWN [E24N], the protein stability index amounted to 3.92.

Turning to LEAAEVILEHAHRGEQTTSQVSWW [E24W], the protein stability index was 2.66.

For the variant LEAAEVILEHAHRGEQTTSQVSWR [E24R], the protein stability index was 3.47.

As for LEAAEVILEHAHRGEQTTSQVSWF [E24F], the protein stability index came out at 2.65.

For the variant LEAAEVILEHAHRGEQTTSQVSWM [E24M], the protein stability index stood at 2.72.

Consider LEAAEVILEHAHRGEQTTSQVSWI [E24I], for which the protein stability index was found to be 2.01.

As to LEAAEVILEHAHRGEQTTSQVSWA [E24A], the protein stability index was 3.2.

Regarding LEAAEVILEHAHRGEQTTSQVSWP [E24P], the protein stability index stood at 4.3.

For the variant LEAAEVILEHAHRGEQTTSQVSWY [E24Y], the protein stability index came to 3.99.

On to LEAAEVILEHAHRGEQTTSQVSWV [E24V], for which the protein stability index amounted to 3.07.

Take LEAAEVILEHAHRGEQTTSRVSWE [Q20R]: the protein stability index was determined as 4.45.

In the case of LEAAEVILEHAHRGEQTTSNVSWE [Q20N], the protein stability index was determined as 4.86.

With LEAAEVILEHAHRGEQTTSMVSWE [Q20M], the protein stability index is 4.34.

As to LEAAEVILEHAHRGEQTTSTVSWE [Q20T], the protein stability index worked out at 3.86.

Regarding LEIAEVILEHAHRGEQTTSQVSWE [A3I], the protein stability index stood at 2.88.

For the variant LELAEVILEHAHRGEQTTSQVSWE [A3L], the protein stability index is 3.71.

In the case of LECAEVILEHAHRGEQTTSQVSWE [A3C], the protein stability index was 4.92.

For the variant LEKAEVILEHAHRGEQTTSQVSWE [A3K], the protein stability index is 4.57.

As to LEAAEVILEHAHRGEQTTSQVIWE [S22I], the protein stability index amounted to 4.41.

On to LEAAEVILEHAHRGEQTTSQVGWE [S22G], for which the protein stability index is 4.89.

LEAAEVILEHAHRGEQTTSQVTWE [S22T]: the protein stability index came to 3.8.

LEAAEVILEHAHRGEQTTSQVEWE [S22E]: the protein stability index turned out to be 4.68.

For LEAAEVILEHAHRGEQTTSQVRWE [S22R], the protein stability index amounted to 3.74.

As for LEAAEVILEHAHRGEQTTSQVYWE [S22Y], the protein stability index is 4.63.

Take LEAAEVILEHAHRGEQTTSQVDWE [S22D]: the protein stability index came to 4.77.

Take LEAAEVILEHAHRGEQTTSQVCWE [S22C]: the protein stability index worked out at 3.85.

For the variant LEAAEMILEHAHRGEQTTSQVSWE [V6M], the protein stability index came out at 3.85.

On to LEAAEFILEHAHRGEQTTSQVSWE [V6F], for which the protein stability index worked out at 3.56.

In the case of LEAAEPILEHAHRGEQTTSQVSWE [V6P], the protein stability index was determined as 5.66.

As for LEAAERILEHAHRGEQTTSQVSWE [V6R], the protein stability index was found to be 4.48.

In the case of LEAAEEILEHAHRGEQTTSQVSWE [V6E], the protein stability index was found to be 5.31.

Consider LEAAEIILEHAHRGEQTTSQVSWE [V6I], for which the protein stability index turned out to be 4.03.

On to LEAAEHILEHAHRGEQTTSQVSWE [V6H], for which the protein stability index was 4.7.

In the case of LEAAEVIKEHAHRGEQTTSQVSWE [L8K], the protein stability index is 4.98.

For LEAAEVIVEHAHRGEQTTSQVSWE [L8V], the protein stability index is 4.83.

Take LEAAEVIGEHAHRGEQTTSQVSWE [L8G]: the protein stability index amounted to 5.23.

As to LEAAEVIAEHAHRGEQTTSQVSWE [L8A], the protein stability index was determined as 4.96.

For LEAAEVILEHAHRGEQNTSQVSWE [T17N], the protein stability index was 4.39.

LEAAEVILEHAHRGEQVTSQVSWE [T17V]: the protein stability index was determined as 4.37.

For LEAAEVILEHAHRGEQMTSQVSWE [T17M], the protein stability index was 3.85.

Take LEAAEVILEHAHRGEQCTSQVSWE [T17C]: the protein stability index is 4.51.

For the variant LEAAEVILEHAHRGEQSTSQVSWE [T17S], the protein stability index was determined as 4.77.

LEAAEVILEHAHRGEQGTSQVSWE [T17G]: the protein stability index stood at 4.84.

For the variant LEAAEVILEHVHRGEQTTSQVSWE [A11V], the protein stability index turned out to be 4.54.
